Laboratory results: patent publication US20240301385, “DNA MODIFYING ENZYMES AND ACTIVE FRAGMENTS AND VARIANTS THEREOF AND METHODS OF USE” (LIFEEDIT THERAPEUTICS, INC., published 2024)

T1: APG30125-L32-nAPG07433.1 (synthetic)
T1 chain: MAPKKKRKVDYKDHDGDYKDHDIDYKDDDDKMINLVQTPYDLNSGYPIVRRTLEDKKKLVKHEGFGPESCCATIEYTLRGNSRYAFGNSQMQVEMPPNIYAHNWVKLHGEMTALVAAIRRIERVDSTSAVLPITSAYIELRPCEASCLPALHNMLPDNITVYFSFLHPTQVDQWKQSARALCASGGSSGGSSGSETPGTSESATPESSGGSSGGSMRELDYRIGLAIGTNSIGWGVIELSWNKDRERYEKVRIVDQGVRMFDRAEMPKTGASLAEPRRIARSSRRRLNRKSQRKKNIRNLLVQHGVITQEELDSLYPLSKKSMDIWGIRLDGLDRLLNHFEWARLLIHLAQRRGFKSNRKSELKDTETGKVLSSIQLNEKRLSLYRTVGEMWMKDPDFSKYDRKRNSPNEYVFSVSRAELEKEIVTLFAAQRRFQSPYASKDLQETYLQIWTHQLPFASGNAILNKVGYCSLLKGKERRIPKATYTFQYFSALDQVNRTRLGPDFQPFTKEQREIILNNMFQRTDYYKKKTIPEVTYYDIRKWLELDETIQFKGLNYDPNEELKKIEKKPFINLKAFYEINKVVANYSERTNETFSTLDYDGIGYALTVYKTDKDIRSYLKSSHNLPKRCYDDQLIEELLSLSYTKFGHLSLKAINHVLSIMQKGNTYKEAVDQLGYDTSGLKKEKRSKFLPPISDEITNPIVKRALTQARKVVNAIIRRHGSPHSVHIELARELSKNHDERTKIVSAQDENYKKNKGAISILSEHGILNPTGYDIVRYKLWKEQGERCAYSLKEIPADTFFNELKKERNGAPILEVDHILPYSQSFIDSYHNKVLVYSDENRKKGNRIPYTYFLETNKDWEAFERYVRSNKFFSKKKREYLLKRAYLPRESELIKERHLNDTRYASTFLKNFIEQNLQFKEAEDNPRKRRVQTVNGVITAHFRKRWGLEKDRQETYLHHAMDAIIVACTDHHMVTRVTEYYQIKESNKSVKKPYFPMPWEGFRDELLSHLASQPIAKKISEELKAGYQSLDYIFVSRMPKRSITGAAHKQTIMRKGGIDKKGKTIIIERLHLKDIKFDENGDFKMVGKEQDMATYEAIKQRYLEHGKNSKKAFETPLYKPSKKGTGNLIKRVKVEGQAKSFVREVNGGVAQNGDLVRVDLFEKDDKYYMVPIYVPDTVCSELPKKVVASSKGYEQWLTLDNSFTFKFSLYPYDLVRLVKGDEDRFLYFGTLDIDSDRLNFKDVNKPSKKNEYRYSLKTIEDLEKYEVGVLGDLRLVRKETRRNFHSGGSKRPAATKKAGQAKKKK

T2: APG30130-L32-nAPG07433.1 (synthetic)
T2 chain: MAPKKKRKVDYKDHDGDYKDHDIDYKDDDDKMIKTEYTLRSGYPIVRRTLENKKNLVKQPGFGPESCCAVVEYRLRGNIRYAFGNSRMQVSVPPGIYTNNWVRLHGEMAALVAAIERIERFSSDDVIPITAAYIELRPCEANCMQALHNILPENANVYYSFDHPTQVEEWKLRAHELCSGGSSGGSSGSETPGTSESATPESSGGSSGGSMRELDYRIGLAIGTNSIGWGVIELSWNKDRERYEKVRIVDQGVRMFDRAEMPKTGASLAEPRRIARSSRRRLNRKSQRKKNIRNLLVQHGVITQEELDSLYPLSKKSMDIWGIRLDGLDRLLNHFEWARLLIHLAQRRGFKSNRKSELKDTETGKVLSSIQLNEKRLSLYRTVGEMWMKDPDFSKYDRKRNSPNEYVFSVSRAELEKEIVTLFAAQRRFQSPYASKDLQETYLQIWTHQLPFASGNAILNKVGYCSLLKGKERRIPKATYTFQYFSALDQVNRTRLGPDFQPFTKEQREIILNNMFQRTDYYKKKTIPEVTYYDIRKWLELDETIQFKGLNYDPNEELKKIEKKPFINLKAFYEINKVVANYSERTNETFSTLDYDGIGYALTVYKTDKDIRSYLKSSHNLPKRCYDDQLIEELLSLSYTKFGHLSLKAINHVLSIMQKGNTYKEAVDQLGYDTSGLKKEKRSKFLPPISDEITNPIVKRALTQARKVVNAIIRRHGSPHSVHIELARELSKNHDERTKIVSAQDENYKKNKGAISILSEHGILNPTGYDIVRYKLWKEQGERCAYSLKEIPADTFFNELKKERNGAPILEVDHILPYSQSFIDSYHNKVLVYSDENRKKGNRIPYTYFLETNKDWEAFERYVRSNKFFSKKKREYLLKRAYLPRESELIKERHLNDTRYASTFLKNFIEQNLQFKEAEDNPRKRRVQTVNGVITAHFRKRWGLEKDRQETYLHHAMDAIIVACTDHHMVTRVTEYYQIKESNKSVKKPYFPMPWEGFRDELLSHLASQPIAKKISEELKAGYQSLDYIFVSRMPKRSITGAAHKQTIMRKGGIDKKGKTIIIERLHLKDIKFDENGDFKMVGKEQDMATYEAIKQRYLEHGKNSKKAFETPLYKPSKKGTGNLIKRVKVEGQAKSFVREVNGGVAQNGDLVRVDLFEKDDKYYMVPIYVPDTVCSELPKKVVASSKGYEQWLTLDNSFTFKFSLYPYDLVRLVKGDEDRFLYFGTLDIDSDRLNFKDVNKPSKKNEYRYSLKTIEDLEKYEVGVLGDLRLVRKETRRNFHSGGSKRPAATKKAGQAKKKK

B1: SGN000169 sgRNA ; SGN000169 target (ssRNA ; dsDNA)
RNA: CACAUCUCGAGCAAGACGUUGUCAUAGUUCCAUUAAAGCCAAAAGUGGCUUUGAUGUUUCUAUGAUAAGGGUUUCGACCCGUGGCGUCGGGGAUCGCCUGCCCAUUGAAAUGGGCUUCUCCCCAUUUAUU
DNA 1: CACATCTCGAGCAAGACGTT
DNA 2: AACGTCTTGCTCGAGATGTG
B2: SGN000930 sgRNA ; SGN000930 target (ssRNA ; dsDNA)
RNA: GAACAACUCAAAUGGAAAUGAAUAUGUCAUAGUUCCAUGAAAGCCAAAAGUGGCUUUGAUGUUUCUAUGAUAAGGGUUUCGGCCCGUGGCGUCGGGGAUCGCCUGCCCAUUCCGAUGGGCUUCUCCCCAUUUAUU
DNA 1: GAACAACTCAAATGGAAATGAATAT
DNA 2: ATATTCATTTCCATTTGAGTTGTTC
B3: SGN000929 sgRNA ; SGN000929 target (ssRNA ; dsDNA)
RNA: AUCUGGAGGGAACUUACAGCAUAUGGUCAUAGUUCCAUGAAAGCCAAAAGUGGCUUUGAUGUUUCUAUGAUAAGGGUUUCGGCCCGUGGCGUCGGGGAUCGCCUGCCCAUUCCGAUGGGCUUCUCCCCAUUUAUU
DNA 1: ATCTGGAGGGAACTTACAGCATATG
DNA 2: CATATGCTGTAAGTTCCCTCCAGAT
B4: SGN000194 sgRNA ; SGN000194 target (ssRNA ; dsDNA)
RNA: GCCGCACAGCAUUCAGGUCGGUCAUAGUUCCAUUAAAGCCAAAAGUGGCUUUGAUGUUUCUAUGAUAAGGGUUUCGACCCGUGGCGUCGGGGAUCGCCUGCCCAUUGAAAUGGGCUUCUCCCCAUUUAUU
DNA 1: GCCGCACAGCATTCAGGTCG
DNA 2: CGACCTGAATGCTGTGCGGC

Key:
APG30125-L32-nAPG07433.1 = biological target: T1, APG30125-L32-nAPG07433.1; assay: cell_activity; HEK293FT; PAM SEQ 152; conditions: tags: SV40 NLS, 3xFLAG N-term; nucleoplasmin NLS C-term
Procedure, shortened: (§1)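 Editing read out by next-generation sequencing (MiSeq 2×250) of PCR amplicons spanning the target site, analysed for INDELs or % cytosine conversion per position (position 1 nearest PAM).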

APG30130-L32-nAPG07433.1 = biological target: T2, APG30130-L32-nAPG07433.1; assay: cell_activity; HEK293FT; PAM SEQ 152; conditions: tags: SV40 NLS, 3xFLAG N-term; nucleoplasmin NLS C-term
Procedure, shortened: as §1

Row | Binder | activity (APG30125-L32-nAPG07433.1) [% mutated reads] | activity (APG30130-L32-nAPG07433.1) [% mutated reads]
1 | B1 | 6.89 | 
2 | B2 |  | 3.14
3 | B3 | 7.39 | 
4 | B4 |  | 3.29
